# According to patent US20110318339A1 (FABRUS, published 2011):
# B1: Fab VH5-51_IGHD5-18*01>3_IGHJ4*01 H:KT TRV & V3-4_IGLJ1*01 L:LP S52G (Fab, V domains shown)
# VH: EVQLVQSGAEVKKPGESLKISCKTSGYRFTSYWIVWVRQMPGKGLEWMGIIYPGDSDTRYSPSFQGQVTISADKSISTAYLQWSSLKASDTAMYYCARRKYSYTYDYFDYWGQGTLVTVSS
# VL: QTVVTQEPSFSVSPGGTVTLTCGLSSGSVSTSYYPSWYQQTPGQAPRTLIYGTNTRSSGVPDRFSGSILGNKAALTITGAQADDESDYYCLLYMGPGISYVFGTGTKVTVL
# notes: Fab, lambda light chain; also called Fab H:KT TRV & L:LP S52G
# B2: Fab VH1-46_IGHD6-6*01_IGHJ1*01 S102A/S103P/S104F/H111F & L6_IGKJ1*01 S28N/S30D/S31H (Fab, V domains shown)
# VH: QVQLVQSGAEVKKPGASVKVSCKASGYTFTSYYMHWVRQAPGQGLEWMGIINPSGGSTSYAQKFQGRVTMTRDTSTSTVYMELSSLRSEDTAVYYCAREEYAPFSAEYFQFWGQGTLVTVSS
# VL: EIVLTQSPATLSLSPGERATLSCRASQNVDHYLAWYQQKPGQAPRLLIYDASNRATGIPARFSGSGSGTDFTLTISSLEPEDFAVYYCQQRSNWPPWTFGQGTKVEIKR
# notes: Fab made in E. coli: VH on CH1 with His6 and Flag tags (Plasmid A), VL on kappa CL (Plasmid C); also called H: APFF & L: NDH
# Legend:
# [1] = molecular target: T1, DLL4 Egf2 (amino acid: 1-282) construct (human, UniProt Q9NR61 26-282); assay: Western blot, non-reducing
# T1 construct: also called EGF2 construct; not shown: myc tag (and his tag) added by the PCR primers
# Description: (§1) Media from transfected CHO cells was collected after 7 days. To enrich for the DLL4 protein, 1 ml aliquots of each sample were batch bound with 50 μl of Talon Resin for 30 minutes. To confirm protein production media samples were tested with mouse anti-c-myc mAb (Genescript; Catalog # A00704). Samples were washed and then boiled with loading dye in the presence or absence of DTT. A gel was run on each of the 2 samples for each condition: with DTT and without DTT. […] For detection goat anti-mouse HRP, goat anti-kappa HRP, and goat anti-lambda HRP were used, respectively.
# [2] = molecular target: T2, DLL4 Egf1 (amino acid: 1-251) construct (human, UniProt Q9NR61 26-251); assay: Western blot, non-reducing
# T2 construct: also called EGF1 construct; not shown: myc tag (and his tag) added by the PCR primers
# Description: as §1
# [3] = molecular target: T3, DLL4 DSL (amino acid: 1-217) construct (human, UniProt Q9NR61 26-217); assay: Western blot, non-reducing
# T3 construct: also called DSL construct; not shown: myc tag (and his tag) added by the PCR primers
# Description: as §1
# [4] = molecular target: T4, recombinant human DLL4 (Cat# 1506-D4/CF, R&D Systems) (human, UniProt Q9NR61 27-529); assay: SPR (ProteOn), hDLL4 amine-coupled on chip; 2-site binding, 89% of it by the footnote
# T4 construct: Bought protein; also called hDLL4; rHuman DLL4
# Description: (§2) In this example, the binding affinities of selected anti-DLL4 Fabs to recombinant human DLL4 (hDLL4, Cat# 1506-D4/CF, R&D Systems) were analyzed using Surface Plasmon Resonance (SPR) (Biosensor Tools, Salt Lake City, Utah). The Fabs analyzed include germline-derived antibodies and germline-modified DLL4 antibodies. Recombinant hDLL4 was immobilized on a SPR chip using amine coupling at three different surface densities. The Fabs were serially diluted 3-fold, with an initial concentration of 1 μM. Binding studies were run on a ProteOn system using a GLM sensor chip in 10 mM HEPES, pH 7.4, 150 mM NaCl, 0.01% Tween-20, and 0.1 mg/ml BSA at 25° C. The response data from each surface was globally fit to determine the binding constants.
# [5] = molecular target: T4, recombinant human DLL4 (Cat# …); assay: ELISA, DLL4 coated, Fab 100 nM
# [6] = molecular target: T4, recombinant human DLL4 (Cat# …); assay: ELISA, DLL4 coated, Fab 6.25 nM
# Description: (§3) The plate was blocked by adding 1% BSA in Tris-buffered Saline Tween (TBST) and incubating for 1 hour at room temperature followed by washing 2 times with 150 μl TBST. A Fab antibody was serially diluted in 1% BSA in PBS. A 50 μl aliquot of each serial dilution was added, in triplicate, to each well and the plate was incubated for 1 hour at room temperature followed by washing 2 times with TBST. 50 μl of either goat anti-human kappa HRP conjugated secondary antibody (Cat # A7164-1 mL, Sigma-Aldrich) or goat anti-human lambda HRP conjugated secondary antibody (Cat # L1645-1 ml, Sigma-Aldrich), diluted 1:1000 in 1% BSA in PBS, was added to each well and the plate was incubated for 30 minutes at room temperature followed by washing 3 times with 200 μl TBST. Finally, 50 μl TMB one-component reagent (Cat # TMBW-1000-01, BioFax) was added and allowed to develop for 2 minutes at room temperature. The reaction was immediately halted by the addition of 50 μl 0.5M H₂SO₄ and the absorbance at 450 nm was measured using an ELISA plate reader.
# [7] = molecular target: T4, recombinant human DLL4 (Cat# …); assay: ELISA, DLL4 coated, Fab 12.5 nM
# Description: as §3
# [8] = molecular target: T4, recombinant human DLL4 (Cat# …); assay: ELISA, DLL4 coated, Fab 25 nM
# Outline: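 A450 read-out after 2 min TMB development and acid stop. Fab, serially diluted in 1% BSA/PBS, bound in triplicate for 1 h at RT on plates blocked with 1% BSA/TBST; detection via HRP goat anti-human kappa or lambda (1:1000, 30 min RT).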
# [9] = molecular target: T4, recombinant human DLL4 (Cat# …); assay: ELISA, DLL4 coated, Fab 3.125 nM
# Description: as §3
# [10] = molecular target: T4, recombinant human DLL4 (Cat# …); assay: ELISA, DLL4 coated, Fab 75 nM
# [11] = molecular target: T4, recombinant human DLL4 (Cat# …); assay: SPR (ProteOn), hDLL4 amine-coupled on chip
# Outline: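 SPR on a ProteOn GLM chip, with DLL4 amine-coupled at three surface densities. Fab analytes were run as 3-fold serial dilutions from 1 μM in 10 mM HEPES pH 7.4, 150 mM NaCl, 0.01% Tween-20, 0.1 mg/ml BSA at 25° C. Responses from each surface were globally fit for binding constants.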
# [12] = molecular target: T4, recombinant human DLL4 (Cat# …); assay: ELISA, DLL4 coated, Fab 50 nM
# Description: as §3
# [13] = molecular target: T4, recombinant human DLL4 (Cat# …); assay: SPR (ProteOn), hDLL4 amine-coupled on chip; 2-site binding, 10% of it by the footnote
# Description: as §2
# [14] = molecular target: T4, recombinant human DLL4 (Cat# …); assay: ELISA, DLL4 coated, Fab 50 nM; remark: listed apart in the source
# Description: as §3
# [15] = molecular target: T4, recombinant human DLL4 (Cat# …); assay: ELISA, DLL4 coated, Fab 100 nM; remark: listed apart in the source
# Description: as §3
Binder,binding result [1],binding result [2],binding result [3],Kd [4] [µM],ELISA absorbance at 450 nm [5] [A450],ELISA absorbance at 450 nm [6] [A450],ELISA absorbance at 450 nm [7] [A450],ELISA absorbance at 450 nm [8] [A450],ELISA absorbance at 450 nm [9] [A450],ELISA absorbance at 450 nm [10] [A450],koff [11] [s⁻¹],kon [11] [M⁻¹ s⁻¹],ELISA absorbance at 450 nm [12] [A450],Kd [13] [µM],ELISA absorbance at 450 nm [14] [A450],ELISA absorbance at 450 nm [15] [A450]
B1,no binding (tested: 20 nM Fab),no binding (tested: 20 nM Fab),no binding (tested: 20 nM Fab),,,,,,,,,,,,,
B2,,,,0.155,0.259,0.125,0.192,0.31,0.096,0.268,0.0689,444000,0.202,0.014,0.507,0.686
